These results are taken from patent publication US20240254201A1.

In this test the target is EBOV GP on EBOV-eGFP-Mayinga authentic virus (Ebola virus (EBOV), Mayinga) (UniProt Q05320). In words: cell-based or functional assay.
Sequence of EBOV GP on EBOV-eGFP-Mayinga authentic virus (Ebola virus (EBOV), Mayinga) (Q05320 33-676 limits assumed): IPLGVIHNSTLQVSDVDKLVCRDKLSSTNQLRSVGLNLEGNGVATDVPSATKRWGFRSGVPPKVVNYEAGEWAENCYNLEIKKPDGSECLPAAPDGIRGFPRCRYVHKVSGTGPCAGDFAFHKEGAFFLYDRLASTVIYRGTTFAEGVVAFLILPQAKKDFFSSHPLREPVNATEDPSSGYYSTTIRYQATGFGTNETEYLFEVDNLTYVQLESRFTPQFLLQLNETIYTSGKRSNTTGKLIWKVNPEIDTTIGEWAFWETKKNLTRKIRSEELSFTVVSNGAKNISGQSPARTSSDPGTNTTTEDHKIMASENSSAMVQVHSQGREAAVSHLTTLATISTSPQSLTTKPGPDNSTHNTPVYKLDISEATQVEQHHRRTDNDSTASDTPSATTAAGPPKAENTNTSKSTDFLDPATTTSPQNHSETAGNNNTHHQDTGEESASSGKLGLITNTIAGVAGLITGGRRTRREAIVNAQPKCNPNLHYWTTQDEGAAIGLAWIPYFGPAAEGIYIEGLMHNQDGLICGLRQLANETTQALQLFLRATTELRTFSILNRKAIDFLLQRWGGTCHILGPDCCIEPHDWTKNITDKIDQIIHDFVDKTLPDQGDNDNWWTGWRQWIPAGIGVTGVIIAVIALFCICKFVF

For the substance CA45 (antibody), the IC50, EBOV-eGFP-Mayinga authentic virus neutralization test is 8.51 µg/mL and the IC90, EBOV-eGFP-Mayinga authentic virus neutralization test stood at 13 µg/mL.
